In doi:10.1101/2023.02.03.526950:

Key:
[1] = target: PXN/paxillin, exogenously expressed in HEK293T cells (human) (UniProt P49023); test: cross-linking
[2] = target: recombinant PXN WT (human) (UniProt P49023); test: SEC-MALS

stoichiometry N [1] | stoichiometry N [2] | Substance
2 | – | PXN/paxillin, exogenously expressed in HEK293T cells (from UniProt P49023-2 1-557) (natural protein)
– | 2 | recombinant PXN WT (from UniProt P49023-2 1-557) (natural protein)
